B1: NADP-dependent isopropanol dehydrogenase, P25984 (parent)
chain: MKGFAMLGINKLGWIEKERPVAGSYDAIVRPLAVSPCTSDIHTVFEGALGDRKNMILGHEAVGEVVEVGSEVKDFKPGDRVIVPCTTPDWRSLEVQAGFQQHSNGMLAGWKFSNFKDGVFGEYFHVNDADMNLAILPKDMPLENAVMITDMMTTGFHGAELADIQMGSSVVVIGIGAVGLMGIAGAKLRGAGRIIGVGSRPICVEAAKFYGATDILNYKNGHIVDQVMKLTNGKGVDRVIMAGGGSETLSQAVSMVKPGGIISNINYHGSGDALLIPRVEWGCGMAHKTIKGGLCPGGRLRAEMLRDMVVYNRVDLSKLVTHVYHGFDHIEEALLLMKDKPKDLIKAVVIL

Variants of: B1
Settings: Clostridium beijerinckii; pH 8.25; Thermal; DSC; Sodium phosphate 25 mM; NaCl 1 M; reversible: yes; structure 1KEV; whole UniProt chain shown

| Variant | Tm [°C] | change of melting temperature, mutant - wild type (higher = more stable) [°C] |
| --- | --- | --- |
| MKGFAMLGINKLGWIEKERPVAGSYDAIVRPLAVSPCTSDIHTVFEGALGDRKNMILGHEAVGEVVEVGSEVKDFKPGDRVIVPCTTPDWRSLEVQAGFQQHSNGMLAGWKFSNFKDGVFGEYFHVNDADMNLAILPKDMPLENAVMITDMMTTGFHGAELADIQMGSSVVVIGIGAVGLMGIAGAKLRGAGRIIGVGSRPICVEAAKFYGATDILNYKNGHIVDQVMKLTNGKGVDRVIMAGGGSETLSQAVSMVKPGGIISNINYHGSGDALLIPRVEWGCGMAHKTIKGGLCPGGRLRAEMLRDMVVYNRVDLSKLVTHVYHGFDHIEEALLLMKDKPKDLIKPVVIL [A347P] | 68.6 | 2.6 |
| MKGFAMLGINKLGWIEKERPVAGSYDAIVRPLAVSPCTSDIHTVFEGALGDRKNMILGHEAVGEVVEVGSEVKDFKPGDRVIVPCTTPDWRSLEVQAGFQQHSNGMLAGWKFSNFKDGVFGEYFHVNDADMNLAILPKDMPLENAVMITDMMTTGFHGAELADIQMGSSVVVIGIGAVGLMGIAGAKLRGAGRIIGVGSRPICVEAAKFYGATDILNYKNGPIVDQVMKLTNGKGVDRVIMAGGGSETLSQAVSMVKPGGIISNINYHGSGDALLIPRVEWGCGMAHKTIKGGLCPGGRLRAEMLRDMVVYNRVDLSKLVTHVYHGFDHIEEALLLMKDKPKDLIKAVVIL [H222P] | 59.5 | -6.5 |
| MKGFAMLGINKLGWIEKERPVAGSYDAIVRPLAVSPCTSDIHTVFEGALGDRKNMILGHEAVGEVVEVGSEVKDFKPGDRVIVPCTTPDWRSLEVQAGFQQHSNGMLAGWKFSNFKDGVFGEYFHVNDADMNLAILPKDMPLENAVMIPDMMTTGFHGAELADIQMGSSVVVIGIGAVGLMGIAGAKLRGAGRIIGVGSRPICVEAAKFYGATDILNYKNGHIVDQVMKLTNGKGVDRVIMAGGGSETLSQAVSMVKPGGIISNINYHGSGDALLIPRVEWGCGMAHKTIKGGLCPGGRLRAEMLRDMVVYNRVDLSKLVTHVYHGFDHIEEALLLMKDKPKDLIKAVVIL [T149P] | 65 | -1 |
| MKGFAMLGINKLGWIEKERPVAGSYDAIVRPLAVSPCTSDIHTVFEGALGDRKNMILGHEAVGEVVEVGSEVKDFKPGDRVIVPCTTPDWRSLEVQAGFQQHSNGMLAGWKFSNFKDGVFGEYFHVNDADMNLAILPKDMPLENAVMITDMMTTGFHGAELADIQMGSSVVVIGIGAVGLMGIAGAKLRGAGRIIGVGSRPICVEAAKFYGATDILNYKNGHIVDQVMKLTNGKGVDRVIMAGGGSETLSQAVSMVKPGGIISNINYHGSGDALPIPRVEWGCGMAHKTIKGGLCPGGRLRAEMLRDMVVYNRVDLSKLVTHVYHGFDHIEEALLLMKDKPKDLIKAVVIL [L275P] | 63.7 | -2.3 |
| MKGFAMLGINKLGWIEKERPVAGPYDAIVRPLAVSPCTSDIHTVFEGALGDRKNMILGHEAVGEVVEVGSEVKDFKPGDRVIVPCTTPDWRSLEVQAGFQQHSNGMLAGWKFSNFKDGVFGEYFHVNDADMNLAILPKDMPLENAVMITDMMTTGFHGAELADIQMGSSVVVIGIGAVGLMGIAGAKLRGAGRIIGVGSRPICVEAAKFYGATDILNYKNGHIVDQVMKLTNGKGVDRVIMAGGGSETLSQAVSMVKPGGIISNINYHGSGDALLIPRVEWGCGMAHKTIKGGLCPGGRLRAEMLRDMVVYNRVDPSKLVTHVYHGFDHIEEALLLMKDKPKDLIKAVVIL [S24P L316P] | 77.1 | 11.1 |
| MKGFAMLGINKLGWIEKERPVPGSYDAIVRPLAVSPCTSDIHTVFEGALGDRKNMILGHEAVGEVVEVGSEVKDFKPGDRVIVPCTTPDWRSLEVQAGFQQHSNGMLAGWKFSNFKDGVFGEYFHVNDADMNLAILPKDMPLENAVMITDMMTTGFHGAELADIQMGSSVVVIGIGAVGLMGIAGAKLRGAGRIIGVGSRPICVEAAKFYGATDILNYKNGHIVDQVMKLTNGKGVDRVIMAGGGSETLSQAVSMVKPGGIISNINYHGSGDALLIPRVEWGCGMAHKTIKGGLCPGGRLRAEMLRDMVVYNRVDLSKLVTHVYHGFDHIEEALLLMKDKPKDLIKAVVIL [A22P] | 66.7 | 0.7 |
| MKGFAMLGINKLGWIEKERPVAGSYDAIVRPLAVSPCTSDIHTVFEGALGDRKNMILGHEAVGEVVEVGSEVKDFKPGDRVIVPCTTPDWRSLEVQAGFQQHSNGMLAGWKFSNFKDGVFGEYFHVNDADMNLAILPKDMPLENAVMITDMMTTGFHGAELADIQMGSSVVVIGIGAVGLMGIAGAKLRGAGRIIGVGSRPICVEAAKFYGATDILNYKNGHIVDQVMKLTNGKGVDRVIMAGGGSETLSQAVSMVKPGGIISNINYHGSGDALLIPRVEWGCGMAHKTIKGGLCPGGRLRAEMLRDMVVYNRVDPSKLVTHVYHGFDHIEEALLLMKDKPKDLIKAVVIL [L316P] | 76.8 | 10.8 |
| MKGFAMLGINKLGWIEKERPVAGPYDAIVRPLAVSPCTSDIHTVFEGALGDRKNMILGHEAVGEVVEVGSEVKDFKPGDRVIVPCTTPDWRSLEVQAGFQQHSNGMLAGWKFSNFKDGVFGEYFHVNDADMNLAILPKDMPLENAVMITDMMTTGFHGAELADIQMGSSVVVIGIGAVGLMGIAGAKLRGAGRIIGVGSRPICVEAAKFYGATDILNYKNGHIVDQVMKLTNGKGVDRVIMAGGGSETLSQAVSMVKPGGIISNINYHGSGDALLIPRVEWGCGMAHKTIKGGLCPGGRLRAEMLRDMVVYNRVDLSKLVTHVYHGFDHIEEALLLMKDKPKDLIKAVVIL [S24P] | 69.9 | 3.9 |
| MKGFAMLGINKLGWIEKERPVAGSYDAIVRPLAVSPCTSDIHTVFEGALGDRKNMILGHEAVGEVVEVGSEVKDFKPGDRVIVPCTTPDWRSLEVQAGFQQHSNGMLAGWKFSNFKDGVFGEYFHVNDADMNLAILPKDMPLENAVMITDMMTTGFHGAELADIQMGSSVVVIGIGPVGLMGIAGAKLRGAGRIIGVGSRPICVEAAKFYGATDILNYKNGHIVDQVMKLTNGKGVDRVIMAGGGSETLSQAVSMVKPGGIISNINYHGSGDALLIPRVEWGCGMAHKTIKGGLCPGGRLRAEMLRDMVVYNRVDLSKLVTHVYHGFDHIEEALLLMKDKPKDLIKAVVIL [A177P] | 66.5 | 0.5 |

Source: FireProtDB (doi:10.1002/pro.5560070509)
